Literature values in PMC7922473.

Target: PrPC (cellular prion protein) (UniProt P04156)

In the case of “CGGTGGGGCAATTTCTCCTACTGT [PrPC aptamer (PrPC-Apt)]”, the Kd is given as 16 nM.
